Publication PMC12288454, “Functional consequences of genetic variations in DgoR, a GntR/FadR family transcriptional repressor of D-galactonate metabolism in Escherichia coli” (Journal of Bacteriology, 2025)

Columns and labels:
DgoR R71C = target: T1, DgoR R71C (Escherichia coli BW, UniProt P31460 1-229, R71C); experiment: EMSA; no effector; apparent Kd, Hill fit; 10 nM DNA, 50 mM Tris pH 8.5, 10 mM MgCl2, 265 mM NaCl, 1 mM PMSF, 12% glycerol, 2 mM DTT, 1 ug herring sperm DNA per 20 uL, 27 C 30 min; effector pre-incubation 37 C 20 min; 8% native PAGE 0.5x TBE; conditions: protein: recombinant; tags: C-terminal 6xHis; chain copies: 2; label: 5'-Cy5 on strand 1; blunt
T1 sequence: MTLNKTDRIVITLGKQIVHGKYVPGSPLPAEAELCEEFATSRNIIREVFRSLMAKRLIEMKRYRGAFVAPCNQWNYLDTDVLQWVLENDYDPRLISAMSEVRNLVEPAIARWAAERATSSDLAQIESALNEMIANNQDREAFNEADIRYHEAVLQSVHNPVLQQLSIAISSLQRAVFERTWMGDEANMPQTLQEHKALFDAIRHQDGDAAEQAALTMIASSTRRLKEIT

DgoR A152E = target: T2, DgoR A152E (Escherichia coli BW, UniProt P31460 1-229, A152E); experiment: as above; conditions: protein: recombinant; tags: C-terminal 6xHis; chain copies: 2; label: 5'-Cy5 on strand 1; blunt
T2 sequence: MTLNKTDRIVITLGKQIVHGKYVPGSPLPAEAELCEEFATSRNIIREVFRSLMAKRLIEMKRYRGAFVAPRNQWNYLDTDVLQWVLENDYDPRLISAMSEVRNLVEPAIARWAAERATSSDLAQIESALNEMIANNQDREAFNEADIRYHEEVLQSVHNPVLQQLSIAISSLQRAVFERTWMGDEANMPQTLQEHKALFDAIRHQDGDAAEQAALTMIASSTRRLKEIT

B1: dgo promoter probe GA149/GA150 (dsDNA)
DNA 1: GTGATCTAAATTGTAGTACAACAATATAAGTTTGTACTACATTACACGCACG
DNA 2: CGTGCGTGTAATGTAGTACAAACTTATATTGTTGTACTACAATTTAGATCAC
DgoR R71C
  Kd: 570 ± 16 nM
DgoR A152E
  Kd: 1940 ± 90 nM
